Laboratory results as given in patent US9738880B2, “Lysosomal protein targeting sequence and therapeutic applications of same” (Children's Hospital Medical Center, priority 2013, dated 2017).

T1: ldLIMP2 (Homo sapiens, UniProt Q14108)
T1 construct: Purified luminal domain LIMP-2 (1d-LIMP2) was custom made (Sino Biological Inc., PRC.); purchased Sino Biological Inc
T1 sequence (Q14108 28-433 limits assumed): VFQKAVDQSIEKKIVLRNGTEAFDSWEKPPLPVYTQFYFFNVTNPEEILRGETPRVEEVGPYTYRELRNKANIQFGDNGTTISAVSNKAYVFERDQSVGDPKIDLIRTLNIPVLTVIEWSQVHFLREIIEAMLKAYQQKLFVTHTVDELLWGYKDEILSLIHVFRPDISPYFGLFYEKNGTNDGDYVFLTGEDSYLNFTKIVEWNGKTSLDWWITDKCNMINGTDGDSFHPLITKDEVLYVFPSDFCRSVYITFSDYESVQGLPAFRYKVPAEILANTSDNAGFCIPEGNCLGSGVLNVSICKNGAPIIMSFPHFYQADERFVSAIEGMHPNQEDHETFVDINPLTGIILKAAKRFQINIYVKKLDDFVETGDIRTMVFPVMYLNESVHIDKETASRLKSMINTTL


Assays:
ldLIMP2 = target: T1, ldLIMP2; experiment: Fluorescence polarization binding of DSPIIV GCase peptides to ldLIMP-2; conditions: for binding to ldLIMP2 by change in fluorescence polarization (δmP), in words: ldLIMP2 fixed at 50 nM, peptide up to 250 nM, FIG. 7A
Method: FIG. 7A-FIG. 7C: Binding and competition of fluorescent labeled or unlabeled DSPIIV (SEQ ID NO 15) GCase peptides to ldLIMP2. The change (δmP) in fluorescence polarization is plotted on the ordinate and the increasing concentrations of the various peptides are on the abscissa. FIG. 7A depicts saturation kinetics under conditions in which the concentration of ldLIMP2 (50 nM) was fixed. […] FIG. 7B depicts a similar study using unlabeled peptides as competitors. […] Each of the unlabeled peptides “competed” with the labeled peptides in the expected ratios. FIG. 7C depicts a competition study in which labeled (WT*) and unlabeled (WT) peptides were used in complementary competition studies.
FIG. 9: Effect pH on binding WT and alanine substituted DSPIIV (SEQ ID NO 15) peptides to ldLIMP2. […] In comparison, incremental decreases were evident in ldLIMP2 binding at pH=6.8, the approximate pH of the ER/cis-Golgi, as follows: the triple mutant (ASPAAV) having the lowest binding (<10% of WT), the DSPAIV (SEQ ID NO 17) (I402A) and DSPIAV (SEQ ID NO 18) (I403A) mutants being intermediate (˜40-50% of WT), and ASPIIV (SEQ ID NO 16) (D399A) having the least change (˜50-60% of WT), relative to WT.
FIG. 12: Stoichiometry between ldLIMP2 and DSPIIV (SEQ ID NO 15). The peptide concentration giving 50% of maximal binding to ldLIMP2 (ordinate) and the concentration of ldLIMP2 (abscissa) have a 1:1 ratio.
Fluorescence Polarization: The DSPIIV (SEQ ID NO 15) and its mutants, and DDQRLLL (SEQ ID NO 14) peptides (FITC labeled or non-labeled) were synthesized (American Peptide Co., Vista, Calif.). Lyophilized peptides were solubilized in acetonitrile and then were diluted at least 10,000-fold into the reactions for fluorescence polarization assessments. The reactions were done at least in duplicate at various peptide and LIMP-2 concentrations (SpectraMax M5, Molecular Device). Fluorescence polarization data were collected and analyzed with SoftMax Pro 5.0 software. Reaction mixtures contained 100 mM phosphate, pH 6.8 and 1 mM DTT.

[1] = tested on: Gba1 null/null mouse fibroblasts; experiment: Immunofluorescence co-localization of expressed GCase constructs (lysosome vs ER/Golgi); format: cell-based; conditions: for Pearson Indices for co-localization to the lysosome, in words: DSPIIV variants, FIG. 10B; for co-localization to / retention in the ER/Golgi, in words: calnexin or calreticulin; for localization of GCase DSPIIV variants to the lysosome (Lamp1 / LIMP-2 co-localization), in words: transient transfection, FIG. 10A
Excerpt: Immunofluorescence studies (IF): Mouse Gba1 null/null were used for the host cells for all transfection experiments. pCMV-AC-GFP Mammalian cell expression vector was used for expression of various GCases that included the TKD region (amino acids 407, 408 and 409) or the DSPIIV (SEQ ID NO 15) region (amino acids 399-404). Direct-labeled first antibodies were applied for IF detection; including anti-human GCase, -Calreticulin, -calnexin, -LIMP2, and -Lamp1. Lysotracker and ER tracker (Invitrogen) were also used as indicated. Analyses were done with a Zeiss AxioVert 200M with ApoTome. Co-localization analyses to obtain Pearson Indices were conducted using a module in the Axiovision 4.8 software.
Initial studies to localize the targeting peptide were conducted with GCase-GFP fusion constructs that had COOH-terminal deletions of GCase (FIG. 1). The constructs are designated as GCase-XX or XXX where the Xs represent the number of GCase amino acids deleted from the COOH-terminus. These constructs were transfected into and expressed in Gba1 null/null mouse fibroblasts using the CMV promoter (pCMV-AC-GFP or YFP) Immunofluorescence analyses using anti-human GCase IgG (green) and Lysotracker (Red) were used for colocalization of GCase to the lysosome (Red) or GCase (green) and Calreticulin or Calnexin (Red) for colocalization to the ER or Golgi (FIG. 2). […] Since LIMP-2 is the receptor for targeting of GCase to the lysosome, our working hypothesis was that the peptide sequence for binding of GCase to LIMP-2 was located within amino acids 347-422.

Gba1−/− cells = experiment: Proportion of GCase protein in cells and media; format: cell-based, mouse; conditions: for Total GCase: cellular + media; for Total GCase / Cellular GCase / Media GCase: mean ± SD, n = 3; for Cellular GCase / Media GCase: total ng
Excerpt: (§1) FIG. 11A-FIG. 11C: Secretion and retention of GCase with alanine variants in the TDK (FIG. 11A) or DSPIIV (SEQ ID NO 15) (FIG. 11B and FIG. 11C) sequences. FIG. 11A depicts activities in the media of Gba1−/− fibroblasts following transient transfections of each of the specified alanine substituted GCases in the TDK region. […] FIG. 11B depicts in the Left Panel: Activities in the media following transient transfections of various DSPIIV (SEQ ID NO 15) alanine substituted GCases and the % of GCase secreted. The latter was calculated as {ng GCase (in media)/[ng GCase (in media)+ng (GCase in lysates)]}×100 (also see Table 2). […] The transfections alone (Null+lipo) had no effect. […] FIG. 11C deicts in cellular lysate GCase activities from the various alanine substituted GCases in the DSPIIV (SEQ ID NO 15) sequence as indicated. […] The doubly alanine substituted GCase had little intracellular activity, i.e., nearly all the GCase was secreted into the media.

Gba1−/− fibroblasts = experiment: GCase activity in media and cell lysates after transient transfection (secretion and retention); format: cell-based, mouse; conditions: cell lysates; FIG. 11C
Excerpt: as §1
Enzyme Assays: Cell pellets were homogenized in 0.25% Na-taurocholate and 0.25% Triton X-100. GCase activities were determined fluorometrically with 4 mM 4MU-Glc in 0.2M/0.1M citric-phosphate, pH 5.6 (18, 54)

Molecule	binding to ldLIMP2 by change in fluorescence polarization (δmP), in words (ldLIMP2)	Total GCase (Gba1−/− cells) [ng]	Cellular GCase (Gba1−/− cells) [ng]	Media GCase (Gba1−/− cells) [ng]	further results
ASPIIV	little binding				decrease of binding to ldLIMP-2 (ldLIMP2; pH 6.8, FIG. 9): 30-40%; ldLIMP2 binding relative to WT peptide (ldLIMP2; pH 6.8, FIG. 9): 50-60 % of WT
D399A: human GCase variant with D399A (ASPIIV sequence) (protein, UniProt P04062 40-536, looked up, variant D399A) Lysosomal acid …: ARPCIPKSFGYSSVVCVCNATYCDSFDPPTFPALGTFSRYESTRSGRRMELSMGPIQANHTGTGLLLTLQPEQKFQKVKGFGGAMTDAAALNILALSPPAQNLLLKSYFSEEGIGYNIIRVPMASCDFSIRTYTYADTPDDFQLHNFSLPEEDTKLKIPLIHRALQLAQRPVSLLASPWTSPTWLKTNGAVNGKGSLKGQPGDIYHQTWARYFVKFLDAYAEHKLQFWAVTAENEPSAGLLSGYPFQCLGFTPEHQRDFIARDLGPTLANSTHHNVRLLMLDDQRLLLPHWAKVVLTDPEAAKYVHGIAVHWYLDFLAPAKATLGETHRLFPNTMLFASEACVGSKFWEQSVRLGSWDRGMQYSHSIITNLLYHVVGWTDWNLALNPEGGPNWVRNFVASPIIVDITKDTFYKQPMFYHLGHFSKFIPEGSQRVGLVASQKNDLDAVALMHPDGSAVVVVLNRSSKDVPLTIKDPAVGFLETISPGYSIHTYLWRRQ		50 ± 4	32 ± 4	18 ± 2	Pearson Indices for co-localization to the lysosome, in words [1]: little co-localization to the lysosome; co-localization to / retention in the ER/Golgi, in words [1]: significant retention in the ER/Golgi; localization of GCase DSPIIV variants to the lysosome (Lamp1 / LIMP-2 co-localization), in words [1]: Essentially identical results
I402A/I403A: human GCase double mutant I402A + I403A (DSPAAV sequence) (protein) ARPCIPKSFGYSSVVCVCNATYCDSFDPPTFPALGTFSRYESTRSGRRMELSMGPIQANHTGTGLLLTLQPEQKFQKVKGFGGAMTDAAALNILALSPPAQNLLLKSYFSEEGIGYNIIRVPMASCDFSIRTYTYADTPDDFQLHNFSLPEEDTKLKIPLIHRALQLAQRPVSLLASPWTSPTWLKTNGAVNGKGSLKGQPGDIYHQTWARYFVKFLDAYAEHKLQFWAVTAENEPSAGLLSGYPFQCLGFTPEHQRDFIARDLGPTLANSTHHNVRLLMLDDQRLLLPHWAKVVLTDPEAAKYVHGIAVHWYLDFLAPAKATLGETHRLFPNTMLFASEACVGSKFWEQSVRLGSWDRGMQYSHSIITNLLYHVVGWTDWNLALNPEGGPNWVRNFVDSPAAVDITKDTFYKQPMFYHLGHFSKFIPEGSQRVGLVASQKNDLDAVALMHPDGSAVVVVLNRSSKDVPLTIKDPAVGFLETISPGYSIHTYLWRRQ		24 ± 4	4 ± 1	20 ± 3	Pearson Indices for co-localization to the lysosome, in words [1]: little co-localization to the lysosome; co-localization to / retention in the ER/Golgi, in words [1]: significant retention in the ER/Golgi; localization of GCase DSPIIV variants to the lysosome (Lamp1 / LIMP-2 co-localization), in words [1]: Essentially identical results; GCase activity in cell lysates relative to WT (Gba1−/− fibroblasts): < 5 % of WT
Mouse WT: mouse wild type GCase (protein, UniProt P17439 20-515, looked up) Lysosomal acid …: AQPCIPKSFGYSSVVCVCNASYCDSLDPVTLPALGTFSRYESTRRGRRMELSVGAIQANRTGTGLLLTLQPEKKFQKVKGFGGAMTDATALNILALSPPTQKLLLRSYFSTNGIEYNIIRVPMASCDFSIRVYTYADTPNDFQLSNFSLPEEDTKLKIPLIHQALKMSSRPISLFASPWTSPTWLKTNGRVNGKGSLKGQPGDIFHQTWANYFVKFLDAYAKYGLRFWAVTAENEPTAGLFTGYPFQCLGFTPEHQRDFISRDLGPALANSSHDVKLLMLDDQRLLLPRWAEVVLSDPEAAKYVHGIAVHWYMDFLAPAKATLGETHRLFPNTMLFASEACVGSKFWEQSVRLGSWDRGMQYSHSIITNLLYHVTGWTDWNLALNPEGGPNWVRNFVDSPIIVDIPKDAFYKQPMFYHLGHFSKFIPEGSQRVALVASESTDLETVALLRPDGSAVVVVLNRSSEDVPLTISDPDLGFLETVSPGYSIHTYLWRRQ		64 ± 7	64 ± 7	0	% Secreted (Gba1−/− cells; ng GCase in media / (ng in media + ng in lysates) × 100): 0%

The next lines start with results.

binding to ldLIMP2 by change in fluorescence polarization (δmP), in words (ldLIMP2)	Molecule	Total GCase (Gba1−/− cells) [ng]	Cellular GCase (Gba1−/− cells) [ng]	Media GCase (Gba1−/− cells) [ng]	further results
background changes	ASPAAV [triple alanine mutant of the DSPIIV peptide]				ldLIMP2 binding relative to WT peptide (ldLIMP2; pH 6.8, FIG. 9): < 10 % of WT
did not show saturation up to 250 nM	DSPAIV				
did not show saturation up to 250 nM	DSPIAV				
